Experimental data taken from the DeepSol protein solubility set.

Assay: soluble on expression in E. coli; label from the status in PepcDB or PDB records

| Sequence | soluble on expression in E. coli |
| --- | --- |
| MSAGTRTQQQPPPKQRHPFQPACRLWCPLSPPSVLPFCASTCRPPPQDRQVRQCGGRIALRVAISPLSSSHSVLDGISHLASRMSDHADIDEAARKRLRAEAPFVSPLPLPPPAAPLLPCDASHNGESAEAAGHILVASAPPHKEDSVASTLHTSAKEARFEGRCMPPSFHSLLGEYEVPEEAKDVEDLVGGHEDFSDLPEARREALLQSVRTLVKKAAGASSAEQLEHLRVKGSRLHGFKDTARKSELTAAYRQLVREGAIAENAVVEALLIRKKGKSHSGVLVVTVFMGPGEFSCPKDCHYCPNQPGIARSYLLKEPGVLRGFRNGWDPISQFYDRASALENNGHVVDKIELIILGGTFSFYPQRYAEEFMTASFYAANTYYDSAPLRPMRSLAEELTLNEGARCRIIGITAETRPDYISARELRRFRSLGITRVQLGIQHLDDDILNLINRDCPTAKTVVAIQRLLDAGFKVDAHWMPDLPGSSFEKDMELFETLFSAENESFQVDQWKVYPTATVPFTKISEWYAQGQYKPYAELDNGAYMVKLLVYIMEHCPYRIRLNRIIRDIPTTYIMGGEKRCNLRQVIEAEMRARHIRCKDIRERECKGNPVDRANTHLFTDEFRASEGTEFYLSVENKDRTQLYGHLRLRLRDDASREESNILPVLRGCALVRELHTYGKLIAVSQQNTGRETQHVGVGTQLMREAERIAKERGYHRMAVIAGVGVRRYYAKLGYRLEDTYMVKELDEQASAITEDQVVQDDDNENSAYSSFLSTIKSFFGFHKNTP | not soluble |
| MGSDKIHHHHHHMKIHPIPPLQCLVFFDAAARHGNFTRAAEELNVTQGAVSKQVVKLESYLGMQLFVRDAKALHLTRAGQTYAGRIHDMLTGCAEATALVMKEPSPHSITIACASGTAGMFLTPIIADFSHEYPNVAIRILVREGVFNLNPAEFDIGVYYIRDVPPPGMSGIRIIEEEVQAYCAPSYLGRRRVSPHELTNVTLLVAEEQQRQWMSWRDWFHLCDSEIAYKPSRTITANSYPVLLQLALRGHGVLLGWNQMITPLVERSDLVLASDASASFGGAYQLVWPDDRRDTAAVTHFREWLLKRVPWKG | not soluble |
| MAHHHHHHMILPRYAYAHADMDQKQMQKLLLMGPGGAGKTCMRSIIFDNYLPRDALRLGITISLDQSQVHILRNLFLNLWDCGGQHRYVTEYLNRQKEYIFRYVGVMLFVFDINSMCRDSHGGIGGLGGVGGESSSATTDWKLPEMLEYFREAMRFIRQYSPKAKVFVLLHKIDLIHKDIREEIFQARKQEILNCIDSDNGMNIEFFGTSIWSDSLYLAYSSVVRSLVPHRDVLVEMMRGIAMACDAAEVALYERSTFLCLTHINRKAAADGSKALFLQGDGELRTTEVSETVKHFKLSCMNNTTSLGGLSITTETFTALLCPFTECTHVLVVSVDPKVNVELHRLNVNAARRRFEQFLDSDEPTACAMREVL | not soluble |
| SNAMIRKYRYGAPFDTEALTEKIETAEEAFPYGEISQKEGFAFTYIMDEDDIVYGLGESNRGINKRGYCYISNCTDDPIHTEDKRSLYGAHNFIIVSGKTTFGLFFDYPSKLTFDIGYTRMDTLKVSCENADLDIYVIEGENAYDIVKQFRRVIGRSYIPPKFAFGFGQSRWGYTTKEDFRAVAKGYRENHIPIDMIYMDIDYMQDFKDFTVNEKNFPDFPEFVKEMKDQELRLIPIIDAGVKVEKGYEVYEEGVKNNYFCKREDGSDFVAAVWPGDTHFPDMLNPEARKWFGDKYRFLIDQGIEGFWNDMNEPAIFYSSEGLAEAKEFAGEFAKDTEGKIHPWAMQAKMKDIVNSPEDYKRFYHNVNGKKIRHDKVHNLFGYNMTRAAGEAFERIDPEKRFLMFSRSSYIGMHRYGGIWMGDNKSWWSHILLNLKMLPSLNMCGFMYTGADLGGFGDDTTRDLLLRFLALGVFTPLMRDHAAEGTREQECYQFENIEDFRSVINARYRLVPYLYSEYMKAALNDDMYFKPLGFVYPDDKMAIRVEDQLMLGNEIMIAPVYEQNARGRYVYLPEEMKFIKFMPDGSISEEVLEKGVHYVDVALNEVPLFIRSGKCIPVAEAAECVKDIDTENMQLIGYEGSSYTLYEDDGIHKDYDKKENYRVLTK | soluble |
| MAFGVLALVHTACENAKYDVIDNLVYINEASTSKTKELTLTEGTTRTSLTVRLVNIINQTIKANLFIDESVLDAYNKKNETNYKMPPKEYISFPESVTIEAGSVSADPVNVDIKSFEAEGGAQYAIPISIKNVEGGIEKSESSSSFLLVLVKPLKQAVPKLTWYNGMHAAPEGAWGLALPNYTLEWWSKVTSKSGNGGYTKNNQAIINSGGLGTELYIRFGDLIYSENGSYKNNFLQVKTMGSQFDTGDPTKGKGLEAQKWYHFAVSYDAASGTTLLYQNGTVVASLSSSIGQPMNIDQFQMISSGEEYFPDFCEMCQVRFWKVTRTVNQIKKSMYTEVDYTDKNLLLYLPMNEGEGATILHDVTGNGHDVEIGNSNLGNENRQKVTWETYSFAQ | not soluble |
| MAFIHTSLTRLMRFAVDQTKDIIEPLMVTKVLTEFSESENDGLSHYAHYAKFHNYLVPNMAKLAEYSIEERVRVIFGFAAVVSDDFLKQIQREGLVHLDKKKRICKFTSHNGKWKLEGDHSHSARMKRRWSMRVRVVVGLPSLMNFLVEKTKDIIEPMLASAAFREFSESEDGGLPEHAYYNHFHKNVAPNMAKIEEYSIEERVRVMFALAGRVSADFRAQTKGLVELDDGKRISKFTSTDGKLKLEGDHSDSARRKRSAAFYRKTDHHCRSANDSKPRRKNGRQSDSEFSDKSGSDEDDVESAISYGNSPKRARCEKSADPEMHVSSGSDDDEVEDVGGMDEEPVLLPIDSDESHIGHLQNGEEMMVEDDNQPIPEDPQYSANSSHQGRRMSGRIQEKLSASIAQETTDAAVAIPHVPILNPPFESDDEEVKYIGAVKGQPKPGPIESVFDQINNRDHFQGNQEYRNQSISERKVDVPLFVEHQQISLSAENRATSAEWKSIFLHDFLKQLTQFICFFECSELAEIKRNIKEVMADEGKISSFQKLEIIDIRTVLGAFFFGVSRKIKSTGSNNSTMKAKDFLVTFKYFLLGLDFSELLELSTVFKRKLTSSHVQRHPPSSPKPTLHNF | not soluble |
| MMDESLCGGLPPEICEQLSVEEQIIKIRLEKRRFGREVTIIEGINEKEFNLKKLASTLKSRLATGGTAKNGRIELQGDHRHRVKKILVELGFPEENITIID | soluble |
| MTGLINAIPATNKDEYKNVGVYIEHRGDELKRPSIEMIGIGKQLARKVNEKLICVVIGDKVDGIAKEVGEYGCDIVLAAESPELAEYRTMPYAEIIGGYIQEYKPNIFLLAATRNGRDLASRIAVKSRTGITADCTVLDIDENRTLLANRPTYGESTLAEILCRNHRPQMATARPGIFPPAEKEKDHKYEVIKKKVDVDKKLLGKQILKFI | not soluble |
| MSGDRDDPRYPYPKDDAELRRRLTPMQYEVTQHAATEPPFTGEYTDTEDAGIYHCVVCGTALFESGAKYHSGCGWPSYFKPIDGEVIDEKMDYTHGMTRVEVRCNQCGAHLGHVFEDGPRDKTGLRYCINSAALNFEAKPERK | not soluble |
| MRQAASIACIGGANVDRKARLLTPFRLGTSHPVTTTQTAGGVARNIAENLGRLAQPVSLVSTVGDDRDGQWLVDVTSRYVNTSFIVRTPKANTGTYTAVLDERGEMVLALADMAIYHPEPRRPPLPRVSVSGG | not soluble |
| RRSPPADAIPKSKKVKVSHRSHSTEPGLVLTLGQGDVGQLGLGENVMERKKPALVSIPEDVVQAEAGGMHTVCLSKSGQVYSFGCNDEGALGRDTSVEGSEMVPGKVELQEKVVQVSAGDSHTAALTDDGRVFLWGSFRDNNGVIGLLEPMKKSMVPVQVQLDVPVVKVASGNDHLVMLTADGDLYTLGCGEQGQLGRVPELFANRGGRQGLERLLVPKCVMLKSRGSRGHVRFQDAFCGAYFTFAISHEGHVYGFGLSNYHQLGTPGTESCFIPQNLTSFKNSTKSWVGFSGGQHHTVCMDSEGKAYSLGRAEYGRLGLGEGAEEKSIPTLISRLPAVSSVACGASVGYAVTKDGRVFAWGMGTNYQLGTGQDEDAWSPVEMMGKQLENRVVLSVSSGGQHTVLLVKDKEQS | soluble |
| MGSDKIHHHHHHMEKKVLIVGISQKQKDFDYSMEELANLAAANNMEVVGEIRQNIDRENRATYVGKGKVDEIKGLAEMQDARLIIFNDELSPSQIRNLEEALELDVMDRTGLILAIFANRAKTKEAQLQVQIAKLQYELPRIFGQGEDMDQQSGKGGLSNRGSGEKKIETDRRTIKYQIRHLQKELDMLVDDREVRRRKRKKNEIPVVSLVGYTNAGKSTTMNGLVRAYSETAEKQVFEKDMLFATLETSVREIVLPDNKQFLLTDTVGFVSKLPHQLVKAFRSTLEEARDADLLIHVVDYSDPHYKTMMKTTEETLKAVGVEDVPVIYAYNKADLIEGEIYPKQTENTIVFSAREKESLEFLTEVIRKELFASYEKATFLIPFEAGNVVAYLNDHADVLATEYLENGTQIVAEVSPADLQKLAEYQVAE | not soluble |
| MGSDKIHHHHHHMIEIIPAIDIIDGKCVRLSQGDYDSKKVYNENPVEVAKEFEANGVRRLHVVDLDGAASHHVVNHRVLEQIATRTSLIVDFGGGVKSDEDLKIAFESGAQMVTGGSVAVKDPELFCHWLEVYGSEKIILGADVKEHKIAVNGWKDESACELFPFLEDYINKGIQKVICTDISCDGMLKGPSIDLYKEMLEKFPNLYLMASGGVSNVDDIIALNEAGVPGVIFGKALYEGHITLKDLRIFL | not soluble |
| MEENSIKIHKWLYPASWLYGAGVALRNKLFDWGKLQSKSFNVPIICIGNIAVGGTGKTPHTEYLIKLLHDEFQVAVLSRGYKRHTKGFVLSTAESDARSIGDEPYQIQSKFSDIRVAVDEDRCHGIERLLTLKEPPVEVILLDDAFQHRYVKAGLNILLTDYHRLFCDDTLMPAGRLRESAQGKNRAQIVIVTKCPPDIKPIDYNIITKRLNLFPYQQLYFSSFRYGNLRAVFPDCATVQERKLSSLQTEEQILLITGIASPDTIIRELEIHTRNIDLLAFSDHHNFSQRDLAQIKERFGKLRKGQRLIVTTEKDATRLICHQELDEGLKPFIYALPIEVEILQNQQDNFNQHIIGYVRENTRNGSLPERKDAHKSLEHHHHHH | soluble |
| MNYTETVAYIHSFPRLAKTGDHRRILTLLHALGNPQQQGRYIHVTGTNGKSTAANAIAHVLEASGLTVGLYTSPFIMRFNERIMIDHEPIPDAALVNAVAFVRAALERLQQQQADFNVTEFEFITALGYWYFRQRQVDVAVIEVGIGGDTDSTNVITPVVSVLTSVALDHQKLLGHTITAIAKHKAGIIKRGIPVVTGNLVPDAAAVVAAKVATTGSQWLRFDRDFSVPKAKLHGWGQRFTYEDQDGRISDLEVPLVGDYQQRNMAIAIQTAKVYAKQTEWPLTPQNIRQGLAASHWPARLEKISDTPLIVIDGAHNPDGINGLITALKQLFSQPITVIAGILADKDYAAMADRLTAAFSTVYLVPVPGTPRALPEAGYEALHEGRLKDSWQEALAASLNDVPDQPIVITGSLYLASAVRQTLLGGKS | soluble |
| MDDQGGTRPDLLSLKPTAVPRLPLVLLARSRLVAKLDDTADTVLICAPAGYGKTLLLSQWLEDQAHKVAWLSPNQHNREALWPAMLQALRRSPAIPPGALRQFSGDEEDAVEVLGDLAQELASTGTSVRLVIDGVDGFSSDERERWIPALLNQSGPPIQLALVARDSTAVDAGPARLSGRIVELRSSDLAFSLEEINVLAAKTTTL | not soluble |
| MGSDKIHHHHHHMLLSMQGICKSFNGIPALRAASLEVGEAEVMALVGQNGAGKSTLIKILTGAYRRDEGAVVFAGEGVSFSMPAESQARGIATIYQEINLAPQRSVAENIYLSREPRRFGLIDRRAMRDGAAAVLRAFNLEIDVDQPVAGFSAATRQMVAIARAVTQKARLVIMDEPTSSLDEREVGILFDTIRTLKRGGVSVVFIGHRLEELYRICDRVTIMRDGKTVATAAMADMPKLALVRHMLGKELAAFEAIAKDADEGAQRPVRLSVRNAGAGVRVRDVSLTVREGEISGLAGLLGSGRTETANLIFGADRLQRGEIRYNGEARAYRQPADAIADGIGLVAEDRKVDGIIPDMSIRENMTLALLPKLARAGIVDRARQDEIVERYITALAIKCTSPDQPIKELSGGNQQKVLLGRWLCTDPKLLIVDEPTRGIDIGAKSEILRLLRRLADEGLGVLMISSELEELLAAADRVTVLSDGTSVAVLPRKELSEAALFAAMAHQVE | not soluble |
